Assay results as given in paper PMC4571279 (Nature Communications, 2015).
Numbering of substitutions follows the chain as printed. Numbers in names are those of the source.

Target: T1, recombinant MERS-CoV S1 protein (MERS-CoV, isolate EMC/2012 (strain of …, UniProt K0BRG7))
T1 construct: source: bought: Sino Biological Inc
Assay: ELISA
Conditions: both partners purified

B1:  (Fab, V domains shown)
VH: QVQLVQSGAEVKKPGSSVKVSCKASGGTFSSYAISWVRQAPGQGLEWMGGIIPILGTASYAQKFQGRVTITADKSTSTAYMELSSLRSEDTAVYYCARVGYCSSTSCNRGAFDIWGQGTMVTVSS
VL: DIQLTQSPSSLSASVGDRVTITCRASQGIRNDLGWYQQKPGKAPKLLIYAASSLQSGVPSRFSGSGSGTDFTLTISSLQPEDFATYYCQQLNSYPLTFGGGTKVEIK
notes: also called m336 F54L
Question: How did the “fold reduction (EC50) against wild-type m336” value turn out when B1 was run?
Answer: ≥ 1000 fold

B2:  (Fab, V domains shown)
VH: B1 VH with L55F, K74E
VL: B1 VL
notes: also called m336 K73E
Question: How did the “fold reduction of binding affinity against m336” value turn out when B2 was run?
Answer: ≥ 10 fold
